From article PMC12312565, “Crystal structures of Escherichia coli glucokinase and insights into phosphate binding” (Acta Crystallographica Section F: Structural Biology …, 2025)

Target: the molecule itself
Assay: crystal structure; phosphate-bound ecGLK, space group P4_(3)2_(1)2; crystals grown in 100 mM Tris-HCl pH 8.5, 200 mM lithium sulfate, 20%(w/v) PEG 5000 MME; data collected at room temperature; molecular replacement with PDB 1q18

B1: Escherichia coli glucokinase (enzyme, E. coli)
chain: MTKYALVGDVGGTNARLALCDIASGEISQAKTYSGLDYPSLEAVIRVYLEEHKVEVKDGCIAIACPITGDWVAMTNHTWAFSIAEMKKNLGFSHLEIINDFTAVSMAIPMLKKEHLIQFGGAEPVEGKPIAVYGAGTGLGVAHLVHVDKRWVSLPGEGGHVDFAPNSEEEAIILEILRAEIGHVSAERVLSGPGLVNLYRAIVKADNRLPENLKPKDITERALADSCTDCRRALSLFCVIMGRFGGNLALNLGTFGGVFIAGGIVPRFLEFFKASGFRAAFEDKGRFKEYVHDIPVYLIVHDNPGLLGSGAHLRQTLGHIL
notes: Escherichia coli glucokinase (glk gene cloned into pCDF-1b); Expression and purification follow Fatema et al., 2024; also called GLK; ecGLK; source: E. coli BL21 (DE3), purified (Ni-NTA, PD10 desalting)
stoichiometry N: 2
